Patent US20260176374A1 (published 2026)

Assays:
Experiment in all cases: BLI
[1] = biological target: 14949
[2] = biological target: 19113
[3] = biological target: 19429

B1: hEPOR (receptor)
chain: APPPNLPDPKFESKAALLAARGPEELLCFTERLEDLVCFWEEAASAGVGPGNYSFSYQLEDEPWKLCRLHQAPTARGAVRFWCSLPTADTSSFVPLELRVTAASGAPRYHRVIHINEVVLLDAPVGLVARLADESGHVVLRWLPPPETPMTSHIRYEVDVSAGNGAGSVQRVEILEGRTECVLSNLRGRTRYTFAVRARMAEPSFGGFWSAWSEPVSLLTPSDLDP
- Kd [1]: 2 nM
- Kd [2]: 2 nM
- Kd [3]: 0.8 nM
